Laboratory results taken from doi:10.1101/2021.06.22.449413, “A Thioredoxin reductive mechanism balances the oxidative protein import pathway in the intermembrane space of mitochondria” (bioRxiv, 2021).

B1: Mia40Δ290 His (S. cerevisiae Mia40 devoid of the N-terminal 290 residues) (domain or fragment, UniProt P36046 291-403, looked up)
chain: EINWDCPCLGGMAHGPCGEEFKSAFSCFVYSEAEPKGIDCVEKFQHMQDCFRKYPEHYAEQLKETSDDEEPQDKVKVNTIESAPNVSSAKENAAKKAEQSDVKKEPLNEESKP
notes: Mia40, S. cerevisiae, lacking the first 290 amino acids; core domain of about 15 kDa; also called core domain of Mia40; soluble functional domain of Mia40; source: purified as 6His-tagged protein

Assays:
[1] = biological target: B1; test: cross-linking; glutaraldehyde 0.1 % final, equimolar purified proteins alone or together, 50 mM Hepes-KOH pH 7.4, on ice, 20 seconds to 10 minutes; SDS-PAGE and anti-His immunoblot; conditions: both partners purified
[2] = biological target: the molecule itself; test: as above
[3] = biological target: B1; test: ITC; 1 mM Mia40Δ290 His in the syringe, 0.1 mM TrxC30/33SHis in the cell; Kd calculated with the Origin software; conditions: both partners purified

Row | binding result [1] | Kd [3] [µM] | Binder | binding result [2]
1 | binds |  | Thioredoxin 2 (Trx2), His-tagged (natural protein, S. cerevisiae, UniProt P22803 1-104, looked up, Thioredoxin 2 (Trx2), S. cerevisiae, cytosolic isoform; source: purified as 6His-tagged protein) MVTQLKSASEYDSALASGDKLVVVDFFATWCGPCKMIAPMIEKFAEQYSDAAFYKLDVDEVSDVAQKAEVSSMPTLIFYKGGKEVTRVVGANPAAIKQAIASNV | binds
2 |  |  | B1 | binds
3 |  | 30 | Trx1 C30/33S double mutant, His-tagged (natural protein, S. cerevisiae, UniProt P22217 1-103, looked up, Thioredoxin 1 (Trx1), S. cerevisiae, both active-site cysteines changed to serine; also called Trx1His C30/33S; TrxC30/33SHis; source: purified as 6His-tagged protein) MVTQFKTASEFDSAIAQDKLVVVDFYATWSGPSKMIAPMIEKFSEQYPQADFYKLDVDELGDVAQKNEVSAMPTLLLFKNGKEVAKVVGANPAAIKQAIAANA | binds
4 | binds |  | Thioredoxin 1 (Trx1), His-tagged, wild type (natural protein, S. cerevisiae, UniProt P22217 1-103, looked up, Thioredoxin 1 (Trx1), S. cerevisiae, cytosolic isoform; cloned in PET24 vector; also called Trx1His wt; TrxHis; source: E. coli, purified (Ni-NTA); for the pull-down imported into isolated wt yeast mitochondria) MVTQFKTASEFDSAIAQDKLVVVDFYATWCGPCKMIAPMIEKFSEQYPQADFYKLDVDELGDVAQKNEVSAMPTLLLFKNGKEVAKVVGANPAAIKQAIAANA | binds
